Experimental data taken from the RNAGym collection of RNA variant scans (doi:10.1073/pnas.2313332121).

B1: TPR t1 (parent)
chain: GACCAAUCUGCCCUCAGAGCUCGAGAACAUCUUCGGAUGCAGAGGAGGCAGGCUUCGGUGGCGCGAUAGCGCCAACGUCCUCAACCUCCAAUGCAUCCCACCACAUGAUGAUGCCUGAAGAGCCUUGGUUUUUUG

Variants of: B1
Assay: polymerase ribozyme fitness, log enrichment relative to wild type (log ratio); higher = more active; in vitro selection for triplet polymerase activity
In short: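 A heterodimeric triplet polymerase ribozyme had each of its subunits mutagenized by PCR into a library, which was transcribed. One round of in vitro selection, done in triplicate, annealed each library with a biotinylated primer, its partner subunit and triplets, then incubated it frozen at −7 °C before gel excision of extended constructs, streptavidin-bead capture and RT-PCR. Fitness is the logarithm of genotype enrichment relative to wild-type enrichment, based on Illumina sequencing of inputs and outputs and inverse-variance-weighted replicate averages. A base-2 logarithm is used, and genotypes were kept only with ≥10 input reads and ≥1 read per output.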

Variant	polymerase ribozyme fitness (log ratio)
U7G U133A	0.128
U7G G35C U130G	-4.31
U7G C70U A83U U131A	0.0577
C8A A29U U55G	-1.42
C8A A43G C70U	-2.74
C8A A24C C31U U38A G45U C56G C70G C80A A111U G117C	-6.01
U7G G52C A90C U130A	-1.64
U7G C8G G44A G120A C124A	1.06
C8A A24G G113A	-3.12
U7G C8U G61A A90U A121C	0.312
U7G G10U C15A U54A C104A	-3.26
C8A A26U A46C C56U	-2.74
U7G G69C A100U	-2.07
U7G U14A C56U U78C A84C C101A	-1.53
U7G C12U C20A	-1.34
U7G G42C G45A G61C	-3.42
U7G G63A	0.0919
U7G U54C G58A U92C	-0.551
U7G G19U G42A G61A	-2.64
U7G G17A G39A U55A G61A C82G C115A U130C	-1.97
U7G G52A C85A U87G	-1.55
C8A A41U A84G	-2.05
C8A A29U	-1.13
U7G C40G A50U	-0.282

Variant	polymerase ribozyme fitness (log ratio)
U7G C8G U106A C115A G127A	2.21
U7G C64U C73G C89A C104U A119U	-6.4
U7G G42A G71A	-2.58
U7G A111C U112A C123G	-0.393
U7G G39A G58A G69C C97U	-1.38
U7G C70U C102A	-2.24
U7G U14G C34G C72U	-5.84
C8A A43C A46U C86U U96A	-3.85
C8A A18U G45C A75U U109A	-6.43
U7G A118G	0.686
U7G C15A A16G C53A C64U	-1.35
U7G G52U	-0.337
U7G G45C G135U	-0.606
U7G G10U G42U A46C U54A G57A C101U C114U	-4.29
U7G G48U U59C C86G	-1.39
U7G C70U C86U U92A	-3.6
U7G U9A G60U C82U	0.122
U7G G10C C72G C82A	-0.707
U7G C101G A121C	-0.603
U7G C34U G58A	-5.02
U7G U106G G117U	-3.33
U7G U106C	1.03
U7G G63A C98A	-6.38
C8A A18C C34G A43U	-7.06

Variant	polymerase ribozyme fitness (log ratio)
U7G C12A C15A C49A U112A	-0.0165
U7G G117C	-1.81
U7G C12G C13U A46U	-0.346
U7G C31U	-3.68
U7G G61A	0.0552
C8A A41C G44U C62U C99U A111U G127A	-7.45
U7G C79U C124A	2.08
U7G C70U	-0.201
U7G G10C G45A G47A U59G A66C G77A	-2.15
C8A A41U G57A C104A	-5.75
U7G G65U C72U C73U U112G	-6.23
U7G G60C	-0.367
U7G C40U G69C C99U	-4.48
U7G G45C C88A C115A	2.03
U7G C11U C97U	0.101
U7G G110C	-3.83
U7G C13G C40U	0.145
C8A A29U A90C	-2.87
U7G G57A C94A C99U A121C	-5.61
U7G C20U C115U	-2.32
U7G C12A C101G U116C	-2.39
U7G G63C A91U	-2.27
U7G C12U A37G A43G G61A A91C	-0.427
U7G C73G C89A C104U A119U	-2.52

Variant	polymerase ribozyme fitness (log ratio)
U7G C22G G47C G60U A84U	-5.01
U7G U38G U54C C56U G110A G122U	-3.58
U7G C12U C20A C72U	-1.43
U7G C70A A100U	-2.41
U7G G39U C49U	-0.696
U7G G44A G63C U92A U125A	-4.07
U7G U116G	-1.53
C8A A46U G61A G117C	-2.38
U7G C11U A18C G45U C53A G57U C72U	-3.58
U7G G10A G45U U96G G117U	-2.43
C8A A37U C124A	1.28
U7G C12A U32A C73U G113A G120U	-4.58
U7G C123A	1.97
U7G C40G C56U G69U	-2.3
U7G C13A A37C G52A G69U U92A A105U	-4.57
U7G A50U G117C	-3.6
U7G G42C G71A C89G	-2.37
U7G C79A C99U	-5.33
U7G G10A A41G C73G C79A C80A C115A	-3.06
U7G U21A A26G G47U C123U U129A U133G	-3.24
U7G C8A G63U G65C	-6.38
C8A A18G C115A	-4.82
U7G U38C G45U C97U U133G	-2.84
U7G G69U C76G A95U	-1.74

Variant	polymerase ribozyme fitness (log ratio)
U7G C8U C15U G17A A50G	-3.01
U7G C53G A90G	0.0166
C8A A24G C28A A84C A121U	-3.25
U7G C70A U87A A121G	1.36
C8A A26U C89G C94U C124G U125G G127U	-3.87
U7G C53G	-0.551
U7G G107U A121U G128C	-5.22
U7G A74U A118U	0.595
U7G G77C C97U U109A	-6.1
U7G G61U C82G A91C U112C	0.65
U7G G36U C80U U92G C123U	-4.24
C8A A43C	-1.76
U7G G10A C49U U112G G135U	-0.92
U7G C28A G57U G110C	-1.2
U7G C53U C88G C104U G113C U130G	-2.37
U7G C15G C88G U96A A108G C124A	-5.93
U7G G113A	-0.761
U7G C49A	0.309
U7G G36A A50C	-0.431
C8A A16G C56A C73A	-0.741
U7G C15U C28G U32A A41U G63U C89A U116C	-4.52
C8A A43U G71C	-2.95
U7G C20U A27U G47C G113A	-4.53
U7G C49A C70U C85G U130A	-2.22

Variant	polymerase ribozyme fitness (log ratio)
U7G C20A G39A C49G A121G	-2.45
U7G A74G	-0.0909
C8A A16C G47A C70U G110A U131A	-3.91
U7G G10C G45U C62A C115U	-3.58
C8A A27C C28U	-4.62
U7G A68U	-6.53
U7G C11U G69C C88A	-1.91
U7G C76U	0.285
U7G C70U A105G	-3.6
U7G G52U G57C C102A A111C	-2.69
C8A A18C	-1.93
U7G C12G C49A G69U	1.21
U7G G120U	0.729
U7G U14G C94A	-0.903
U7G C88G	-0.456
U7G C31U G60A	-4.97
U7G G48A C70A C101A	-2.19
U7G G10A C15G G17A A43C C53G C97U	-4.35
U7G C31G U38A G69A C80U C101G G120A	-7.18
U7G C34U G69U C123U U133C	1.52
U7G C28U G48A	-1.75
U7G G63A C102U	-3.01
U7G C64U	0.622
U7G C56U	0.612

Variant	polymerase ribozyme fitness (log ratio)
U7G G93U G113A	-1.85
U7G G71U	0.698
U7G G17C G44C G77U C94A	-6
C8A A16C G39U C102A	-4.53
C8A A24U G25U A43G C70G A105C U112G	-7.66
U7G C72A A105U U125G	-2.26
C8A A18G U32A G61A C123A	-2.56
C8A A37G C62G C99U G122A	-6.04
C8A A37U C86U	-0.337
U7G C20U C53U A68C U112A	-6.37
C8A A37C U78G A100C C101A U106G	-5.27
U7G C115U	-1.47
U7G U14C A29G G42U U59A C123U	-3.3
U7G C11G U33A A90G C101A	-6.24
U7G U21C U59G G63A U116G C124G U131A	-5.19
U7G G45C C72G C82A C98A	-5.33
U7G C124U	1.55
U7G C12A G36U G77U	-0.735
U7G G69A	-2.34
U7G G69C	-0.478
U7G C8A C15U G36A C56G C70G U78C C82G U106A	-4.94
U7G G45C G77A C82A C98A	-6.73
U7G C40U A43G G44U C70U U112C	-0.649
